Measured values from US11332499B2, “Cyclic peptides and methods of use thereof” (Regents of the University of Minnesota, priority 2018, dated 2022).
Values joined by “and” are separate entries in the source; they are usually repeats but may differ in a detail not shown here. Equal entries are not always repeated. Where two headings read alike, the source gives them in different places. Bridge positions count the residues as written; N and C are the ends. Square brackets hold non-standard residues; d marks the D form. Ends that are not written are not given here.

Legend:
mMC1R [1] = biological target: T1, mMC1R (Mus musculus, UniProt Q01727); test: AlphaScreen cAMP assay, agonist activity, HEK293 cells stably expressing mMC1R; format: cell-based; settings: Table 2; at 100 μM, relative to NDP-MSH
T1 construct: expressed in transfected cells
T1 sequence (Q01727 whole entry): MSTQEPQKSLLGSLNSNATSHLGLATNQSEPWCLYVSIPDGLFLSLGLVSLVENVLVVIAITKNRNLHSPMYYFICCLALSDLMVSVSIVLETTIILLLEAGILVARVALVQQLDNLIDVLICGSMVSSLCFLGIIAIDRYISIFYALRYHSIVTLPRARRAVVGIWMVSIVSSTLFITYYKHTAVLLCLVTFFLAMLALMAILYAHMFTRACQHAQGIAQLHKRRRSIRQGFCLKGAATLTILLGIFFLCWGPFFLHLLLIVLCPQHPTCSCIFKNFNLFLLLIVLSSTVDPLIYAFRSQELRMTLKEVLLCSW

mMC4R [2] = biological target: T2, mMC4R (Mus musculus, UniProt P56450); test: AlphaScreen cAMP assay, agonist activity, HEK293 cells stably expressing mMC4R; format: cell-based; parameters: expressed in transfected cells; settings: Table 2; at 100 μM
T2 sequence (P56450 whole entry): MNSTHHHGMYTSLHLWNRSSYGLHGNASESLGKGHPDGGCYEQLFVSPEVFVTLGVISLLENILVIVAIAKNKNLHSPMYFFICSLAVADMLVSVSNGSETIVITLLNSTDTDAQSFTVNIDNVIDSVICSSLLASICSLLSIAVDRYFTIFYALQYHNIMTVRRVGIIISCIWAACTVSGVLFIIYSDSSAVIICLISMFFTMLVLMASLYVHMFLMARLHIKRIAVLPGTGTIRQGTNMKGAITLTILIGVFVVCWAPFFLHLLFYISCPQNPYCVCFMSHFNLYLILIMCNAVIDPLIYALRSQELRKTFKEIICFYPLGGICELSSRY

mMC5R [3] = biological target: T3, mMC5R (Mus musculus, UniProt P41149); test: AlphaScreen cAMP assay, agonist and inverse agonist activity, HEK293 cells stably expressing mMC5R; format: cell-based; settings: Table 2; at 100 μM
T3 construct: expressed in transfected cells
T3 sequence (P41149 whole entry): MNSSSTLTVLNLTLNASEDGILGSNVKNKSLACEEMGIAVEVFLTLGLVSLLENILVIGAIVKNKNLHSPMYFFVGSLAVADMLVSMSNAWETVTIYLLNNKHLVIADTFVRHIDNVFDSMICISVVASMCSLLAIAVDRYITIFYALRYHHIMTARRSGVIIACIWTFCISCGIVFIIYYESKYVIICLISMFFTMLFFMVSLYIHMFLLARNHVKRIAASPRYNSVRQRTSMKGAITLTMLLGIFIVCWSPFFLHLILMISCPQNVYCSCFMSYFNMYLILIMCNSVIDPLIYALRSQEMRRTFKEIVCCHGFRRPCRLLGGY

mMC4R [4] = biological target: T2, mMC4R; settings: Example 4; from Ki values
mMC3R [5] = biological target: T4, mMC3R (Mus musculus, UniProt P33033); test: AlphaScreen cAMP assay, agonist activity, HEK293 cells stably expressing mMC3R; format: cell-based; settings: Table 2; at 100 μM
T4 construct: expressed in transfected cells
T4 sequence (P33033 whole entry): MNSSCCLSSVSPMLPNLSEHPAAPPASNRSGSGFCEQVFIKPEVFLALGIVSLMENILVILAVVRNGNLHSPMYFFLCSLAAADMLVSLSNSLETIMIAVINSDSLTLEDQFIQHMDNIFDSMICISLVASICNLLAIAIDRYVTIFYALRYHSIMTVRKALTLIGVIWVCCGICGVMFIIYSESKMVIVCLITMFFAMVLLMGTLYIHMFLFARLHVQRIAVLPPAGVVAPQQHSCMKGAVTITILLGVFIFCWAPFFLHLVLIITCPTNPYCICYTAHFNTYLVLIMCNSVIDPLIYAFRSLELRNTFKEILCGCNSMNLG

hMC1R = hMC1R (Homo sapiens, UniProt Q01726); settings: inhibition of α-MSH activity, cited from earlier work
Sequence of hMC1R (Q01726 whole entry): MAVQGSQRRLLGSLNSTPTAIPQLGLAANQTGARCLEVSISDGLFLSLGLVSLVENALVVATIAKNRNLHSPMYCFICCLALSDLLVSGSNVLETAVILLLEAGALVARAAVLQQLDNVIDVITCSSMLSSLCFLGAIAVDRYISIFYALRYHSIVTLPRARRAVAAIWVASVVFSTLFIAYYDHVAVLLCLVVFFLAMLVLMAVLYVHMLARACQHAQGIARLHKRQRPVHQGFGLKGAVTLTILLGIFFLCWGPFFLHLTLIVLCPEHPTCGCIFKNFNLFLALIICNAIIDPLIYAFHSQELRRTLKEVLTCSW

MC4R [6] = biological target: T5, MC4R (Homo sapiens, UniProt P32245); parameters: expressed in transfected cells; settings: inhibition of α-MSH activity; cited from earlier work
Target sequence in this assay (P32245 whole entry): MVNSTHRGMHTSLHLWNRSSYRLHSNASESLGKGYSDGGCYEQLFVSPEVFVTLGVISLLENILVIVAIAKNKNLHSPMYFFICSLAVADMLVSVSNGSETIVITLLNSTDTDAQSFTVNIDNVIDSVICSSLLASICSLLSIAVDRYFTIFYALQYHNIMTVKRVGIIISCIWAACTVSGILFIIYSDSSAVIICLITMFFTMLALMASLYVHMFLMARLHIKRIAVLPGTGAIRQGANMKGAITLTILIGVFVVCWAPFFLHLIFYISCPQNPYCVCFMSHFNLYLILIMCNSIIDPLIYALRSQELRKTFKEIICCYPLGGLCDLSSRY

hMC3R = hMC3R (Homo sapiens, UniProt P41968); settings: inhibition of α-MSH activity; cited from earlier work
Sequence of hMC3R (P41968 whole entry): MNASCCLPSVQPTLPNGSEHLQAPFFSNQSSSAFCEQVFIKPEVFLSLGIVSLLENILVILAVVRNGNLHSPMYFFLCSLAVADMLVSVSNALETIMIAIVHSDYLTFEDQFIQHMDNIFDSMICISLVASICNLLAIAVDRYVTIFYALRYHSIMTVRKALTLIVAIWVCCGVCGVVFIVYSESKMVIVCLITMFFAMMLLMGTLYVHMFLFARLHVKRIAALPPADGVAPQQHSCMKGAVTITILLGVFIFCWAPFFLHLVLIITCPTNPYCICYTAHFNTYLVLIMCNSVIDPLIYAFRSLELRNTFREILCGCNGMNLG

MC1R = MC1R (Mus musculus, UniProt Q01727); settings: previously reported, read-out: MC1R agonist potency, cited from earlier work
Sequence of MC1R (Q01727 whole entry): as the sequence (Q01727 whole entry) above

MC4R [7] = biological target: T5, MC4R; settings: previously reported; cited from earlier work
Target sequence in this assay (P32245 whole entry, species assumed): as the sequence (P32245 whole entry) above

MC3R = MC3R (Mus musculus, UniProt P33033); settings: β-galactosidase reporter gene assay; previously reported; cited from earlier work
Sequence of MC3R (P33033 whole entry): as the sequence (P33033 whole entry) above

MC4R [8] = biological target: MC4R (Mus musculus, UniProt P56450); settings: β-galactosidase reporter gene assay; previously reported; cited from earlier work
Sequence of MC4R (Mus musculus, UniProt P56450) (P56450 whole entry): as the sequence (P56450 whole entry) above

mMC4R [9] = biological target: T2, mMC4R; parameters: expressed in transfected cells; settings: cited from earlier work
MC4R [10] = biological target: T5, MC4R; test: AlphaScreen cAMP assay, antagonist activity (Schild, NDP-MSH) at hMC4R; format: cell-based; parameters: expressed in transfected cells; settings: Example 5
Target sequence in this assay (P32245 whole entry): as the sequence (P32245 whole entry) above
Experimental: (§1) Briefly, cells 70-90% confluent were dislodged with Versene (Gibco®) at 37° C. and plated 10,000 cells/well in a 384-well plate (Optiplate™) with 10 μL freshly prepared stimulation buffer (1×HBSS, 5 mM HEPES, 0.5 mM IBMX, 0.1% BSA, pH=7.4) with 0.5 μg anti-cAMP acceptor beads per well.
(§2) Following stimulation, streptavidin donor beads (0.5 μg) and biotinylated-cAMP (0.62 μmol) were added to the wells in a subdued light environment with 10 μL lysis buffer (5 mM HEPES, 0.3% Tween-20, 0.1% BSA, pH=7.4) and the plates were incubated in the dark at room temperature for an additional 2 hr.
(§3) The EC50 values represent the mean of duplicate replicates performed in at least three independent experiments. The EC50 estimates and associated standard errors (SEM) were determined by fitting the data to a nonlinear least-squares analysis using the PRISM program (v4.0, GraphPad Inc.). The ligands were assayed as TFA salts and not corrected for peptide context.

MC4R [11] = biological target: T5, MC4R; test: Competitive radioligand binding, displacement of 125I-NDP-MSH, HEK293 cells expressing hMC4R; parameters: expressed in transfected cells; settings: displacement of 125I-NDP-MSH
Target sequence in this assay (P32245 whole entry): as above

free-feeding mice [12] = test: Mouse feeding study, intracerebroventricular (ICV) administration; format: in vivo; settings: 10 nmol
Experimental: Cannulation surgeries were performed to place a cannula into the lateral cerebral ventricle as previously reported.^23,67,76 Mice were anesthetized with a mixture of xylazine (5 mg/kg) and ketamine (100 mg/kg) administered intraperitoneal (IP) and placed in a stereotaxic apparatus (David Kopf Instruments) that was used to guide the cannula placement. […] After surgery, flunixin meglumine (FluMegluine, Clipper Distribution Company) and 0.5 mL of 0.9% saline (Hospira, Lake Forrest, Ill.) was administered subcutaneously to aid in recovery. Mice recovered for at least 7 days prior to cannula placement validation. Mice were housed individually after surgery and for the remainder of the experiments.
Cannula placement was validated by the feeding response after ICV administration of 2.5 μg of human (h)PYY3-36 (cat # H8585; Bachem), as described previously.^23,67,75-76 Mice received saline treatment and hPYY treatment on different days separated by a washout period of at least 3 days in a crossover design nocturnal feeding paradigm. In this paradigm, compound or saline is administered 2 h prior to lights out (t=0 h) and body weight and food are measured. Mice have free access to food and water. At 4 h post-administration, food is measured. A mouse with a validated properly placed cannula consumed at least 0.8 g more food after hPYY administration compared to saline administration at 4 h.
All ICV and IT administration experiments utilized a crossover design with free access to standard chow. Mice were housed in RAR supplied conventional mouse cages. […] Matching vehicle controls (3% v/v DMSO in saline and 20% solutol) were prepared in parallel. The day of compound administration, an aliquot of stock solution was diluted with saline to the desired experimental dose in 3 μL, in parallel with vehicle control. For ICV administration, the desired experimental dose (3 μL) or vehicle control (3 μL) was delivered 2 h before lights out (t=0 h). For IT administration, the desired experimental dose (5 μL) or vehicle control (5 μL) was delivered 2 h before lights out (t=0 h). Food intake and mouse weight was manually measured at t=0, 2, 4, 6, 8, 24, 48, and 72 h post-injection. Mice recovered 6-7 days between treatments to reestablish pretreatment body weight and feeding patterns.

free-feeding mice [13] = test: Mouse feeding study, intrathecal (IT) administration (Example 5); format: in vivo; settings: 10 nmol
Experimental: All studies were performed in standard mouse polycarbonate conventional cages provided by the University of Minnesota's Research Animal Resources (RAR), and were changed weekly by laboratory research staff.
All ICV and IT administration experiments utilized a crossover design with free access to standard chow. Mice were housed in RAR supplied conventional mouse cages. Compound MDE3-119-8e was dissolved in a stock solution of 10 nmols/μL in 3% v/v DMSO (Sigma Aldrich)/saline (0.9% sodium chloride, Hospira Inc., Lake Forest, Ill.). Ligands MDE3-119-2c and MDE3-119-10c were dissolved in 20% solutol (Sigma Aldrich). Matching vehicle controls (3% v/v DMSO in saline and 20% solutol) were prepared in parallel. The day of compound administration, an aliquot of stock solution was diluted with saline to the desired experimental dose in 3 μL, in parallel with vehicle control. For ICV administration, the desired experimental dose (3 μL) or vehicle control (3 μL) was delivered 2 h before lights out (t=0 h). […] Food intake and mouse weight was manually measured at t=0, 2, 4, 6, 8, 24, 48, and 72 h post-injection. […]
For feeding experiments with compound MDE3-119-10c, data were analyzed using the PRISM program (v4.0; GraphPad Inc.) by two-way ANOVA with a Sidak's multiple comparison post hoc test.

hMC4R-Kir7.1(M125R) [14] = biological target: T6, hMC4R-Kir7.1(M125R) (Homo sapiens, UniProt P32245); test: Kir7.1 thallium flux assay, HEK293 cells expressing human MC4R and Kir7.1 (M125R); format: cell-based; settings: antagonist Ki / Kir7.1 apparent potency
T6 construct: expressed in transfected cells; Kir7.1 tetracycline-induced)
T6 sequence (P32245 whole entry, stated change not applied): as the sequence (P32245 whole entry) above
Experimental: In this assay, the Kir7.1 (M125R) variant was used since it previously was reported to result in higher unitary conductance compared to the native channel.^39
The compound with the highest apparent potency.
HEK293 cells stably expressing the human MC4R and Kir7.1 (M125R) were grown in MEM medium with 10% FBS without antibiotics, suspended in medium plus 1 μg ml^−1 tetracycline (to induce expression of the transfected tet-sensitive Kir7.1 gene) and plated (20 μL) in 384-well poly-D-lysine coated optical bottom plates (BD Biosciences) at 20,000 cells per well. Plates were incubated overnight for 16-24 h in the cell incubator at 37° C., 5% CO2. […] Plates were incubated in the dark for 1 h at room temperature and dye solution was removed. Upon addition of 20 μL 1×HBSS buffer, a liquid handler added 20 μL of ligand solution to entire plate simultaneously (ligands were prepared by serial dilution in 1×HBSS, 20 mM HEPES, 0.1% BSA, pH 7.3). Plates were incubated in the dark for 20 min (unless otherwise indicated). After a baseline reading on a Thallos Plate-reader (Vanderbilt, Tenn.), 10 μL of a thallium solution (1×HBSS, 20 mM HEPES, 2 mM Tl, pH 7.3) was loaded and fluorescence generated by thallium influx was recorded for 10 min. The signal was normalized to an untreated control.

MC4R [15] = biological target: T5, MC4R; test: Competitive radioligand binding, displacement of 125I-AGRP, HEK293 cells expressing hMC4R; parameters: expressed in transfected cells; settings: displacement of 125I-AGRP
Target sequence in this assay (P32245 whole entry): as above
Experimental: Competitive binding affinity experiments were performed on HEK-293 cells stably expressing the wildtype hMC4R. […] The assay media was carefully aspirated and cells were washed once with assay buffer. Cell were lysed with 500 μL 0.1 M NaOH and 500 μL 1% Triton X-100 for a minimum of 10 min. […] All experiments were performed with duplicate data points and in at least two independent experimental replicates. […] Concentration-response curves and IC50 values were generated and analyzed by the PRISM program (version 4.0. GraphPad Inc.) by a nonlinear regression method. The standard error of the mean (SEM) was derived from the IC50 values from at least two independent experimental replicates.

MC4R [16] = biological target: T5, MC4R; parameters: expressed in transfected cells; settings: Table 10; AGRP(87-132), previously reported by Jackson et al.; read-out: hMC4R 125I-NDP-MSH IC50; cited from earlier work
Target sequence in this assay (P32245 whole entry): as above

MC4R [17] = biological target: T5, MC4R; test: AlphaScreen cAMP assay, inverse agonist activity at hMC4R; format: cell-based; parameters: expressed in transfected cells; settings: Table 10
Target sequence in this assay (P32245 whole entry): as above
Experimental: The apparent potencies were determined from the inflection point of the normalized sigmoidal dose-response curves.
as §1, §2, §3

mMC5R [18] = biological target: T3, mMC5R; settings: Table 6; previously described (Wilczynski 2004); read-out: Inverse Agonist mMC5R EC50; cited from earlier work
mMC3R [19] = biological target: T4, mMC3R; settings: Table 6, previously described (Wilczynski 2004), cited from earlier work
mMC1R [20] = biological target: T1, mMC1R; settings: Table 6; previously described (Wilczynski 2004); read-out: Agonist mMC1R EC50; cited from earlier work
rats = settings: ICV administration into rats; cited from earlier work
hMC4R-Kir7.1(M125R) [21] = biological target: T6, hMC4R-Kir7.1(M125R); settings: up to 100 nM; literature; cited from earlier work
mMC4R [22] = biological target: T2, mMC4R; parameters: expressed in transfected cells; settings: displacement of radiolabeled NDP-MSH; read-out: Ki app, mMC4R; cited from earlier work
mMC3R [23] = biological target: T4, mMC3R; settings: displacement of radiolabeled NDP-MSH; read-out: Ki app, mMC3R; cited from earlier work
mMC1R [24] = biological target: T1, mMC1R; settings: displacement of radiolabeled NDP-MSH; read-out: Ki app, mMC1R; cited from earlier work

## 20 (cyclo(PRFFNFF[dP]); SMILES N=C(N)NCCC[C@@H]1NC(=O)[C@@H]2CCCN2C(=O)[C@H]2CCCN2C(=O)[C@H](Cc2ccccc2)NC(=O)[C@H](Cc2ccccc2)NC(=O)[C@H](CC(N)=O)NC(=O)[C@H](Cc2ccccc2)NC(=O)[C@H](Cc2ccccc2)NC1=O) [Peptide 20]
mMC1R [1]
  mMC1R percent maximal stimulatory response: 70% @ 100 μM
mMC4R [2]
  mMC4R percent maximal stimulatory response: 35% @
mMC5R [3]
  mMC5R percent maximal stimulatory response: 25% @
mMC4R [4]
  fold selectivity for the mMC4R over the mMC3R: 600 fold and 630 fold
mMC3R [5]
  mMC3R percent maximal stimulatory response: 35% @

## ASP-YY: synthesized ASP variant with two residues changed to the homologous AGRP residues (KKVVRPRTPLSAPCVATRNSCKPPAPACCDPCASCYCRFFRSACYCRVLSLNC; UniProt P42127 80-132, looked up, variant Q115Y S124Y)
hMC1R
  functional antagonist potency, hMC1R: 0.0039 µM
hMC1R; listed as Agouti-YY
  functional antagonist potency, hMC1R: 0.004 µM
MC4R [6]
  functional antagonist potency, hMC4R: 0.0005 µM
hMC3R
  functional antagonist potency, hMC3R: 0.0026 µM

## H-DPAATAYCRFFNAFCYARKL-OH (disulfide 8-15) [20 residue peptide]
MC1R
  EC50: 0.96 µM
MC4R [7]
  MC4R antagonist pA2: 6.9

## Tyr-c[Cys-Arg-Phe-Phe-Asn-Ala-Phe-Cys]-Tyr (YCRFFNAFCY; disulfide 2-9) [hAGRP (109-118)]
MC1R; listed as H-Tyr-c[Cys-Arg-Phe-Phe-Asn-Ala-Phe-Cys]-Tyr-OH
  EC50: 2.89 µM
MC1R
  EC50: 3 µM
MC3R
  MC3R antagonist pA2: No activity
MC4R [8]
  MC4R antagonist pA2: 6.8 ± 0.4

## c[Pro-Arg-Phe-Phe-Val-Ala-Phe-DPro] [Peptide 13 (Example 1)]
mMC4R [9]; previous SAR study (ref 52)
  fold decreased antagonist potency compared to the Dap substitution at the mMC4R: 630 fold
MC4R [10]
  fold decreased antagonist potency relative to MDE3-119-8c at the hMC4R: 310 fold
MC4R [11]
  fold decreased binding affinity compared to NDP-MSH: 200 fold
free-feeding mice [12]
  cumulative food intake after ICV administration vs vehicle: significant, prolonged decrease in cumulative food intake at 4, 6, 8, 24, 48, and 72 h
free-feeding mice [13]
  food intake after IT administration vs vehicle: no effect on food intake compared to vehicle
hMC4R-Kir7.1(M125R) [14]
  fold selective for Kir7.1 signaling over cAMP antagonism: 4,000 fold
MC4R [15]
  fold decreased binding affinity compared to AGRP: 200 fold

## hAGRP(86-132): C-terminal domain of agouti-related protein, purchased from Peptides International (RCVRLHESCLGQQVPCCDPCATCYCRFFNAFCYCRKLGTAMNPCSRT) [reference compound]
MC4R [16]
  IC50: 0.011 ± 0.001 µM
MC4R [17]
  hMC4R Inverse Agonist, decrease from basal signal: (-35%)
hMC4R-Kir7.1(M125R) [14]
  fold selective for cAMP over Kir7.1 signaling: 2 fold

## hAGRP(87-132): truncated human agouti-related protein, previously described in Wilczynski et al. 2004
mMC5R [18]
  EC50: > 100 µM
mMC4R [9]; Table 6, previously described (Wilczynski 2004)
  Antagonist mMC4R pA2: 9.4 ± 1.0
mMC4R [9]; Table 6, previously described (Wilczynski 2004), read-out: Antagonist mMC4R Ki
  Ki: 0.0004 µM
mMC3R [19]
  Antagonist mMC3R pA2: 8.9 ± 0.2
mMC3R [19]; read-out: Antagonist mMC3R Ki
  Ki: 0.0013 µM
mMC1R [20]
  EC50: > 100 µM
rats
  increase of 24 h food intake above saline: 42%

## mini-AGRP: truncated form of AGRP (AGRP87-120, C105A) (CVRLHESCLGQQVPCCDPAATCYCRFFNAFCYCR; ends and bridges not checked; cysteine pairing not given here; UniProt O00253 87-120, looked up, fragment C105A)
hMC4R-Kir7.1(M125R) [21]
  effect on thallium flux: did not affect thallium flux at concentrations up to 100 nM
rats
  increase of 24 h food intake above saline: 21%

B1: mASP: recombinant mouse agouti-signaling protein (protein, UniProt Q03288 23-131, looked up)
Agouti-signaling protein: HLALEETLGDDRSLRSNSSMNSLDFSSVSIVALNKKSKKISRKEAEKRKRSSKKKASMKKVARPPPPSPCVATRDSCKPPAPACCDPCASCQCRFFGSACTCRVLNPNC
mMC4R [22]
  Ki: 0.054 µM
mMC3R [23]
  Ki: 0.19 µM
mMC1R [24]
  Ki: 0.0026 µM
